T1: human PAC1 receptor (human, UniProt P41586 21-468)
T1 sequence: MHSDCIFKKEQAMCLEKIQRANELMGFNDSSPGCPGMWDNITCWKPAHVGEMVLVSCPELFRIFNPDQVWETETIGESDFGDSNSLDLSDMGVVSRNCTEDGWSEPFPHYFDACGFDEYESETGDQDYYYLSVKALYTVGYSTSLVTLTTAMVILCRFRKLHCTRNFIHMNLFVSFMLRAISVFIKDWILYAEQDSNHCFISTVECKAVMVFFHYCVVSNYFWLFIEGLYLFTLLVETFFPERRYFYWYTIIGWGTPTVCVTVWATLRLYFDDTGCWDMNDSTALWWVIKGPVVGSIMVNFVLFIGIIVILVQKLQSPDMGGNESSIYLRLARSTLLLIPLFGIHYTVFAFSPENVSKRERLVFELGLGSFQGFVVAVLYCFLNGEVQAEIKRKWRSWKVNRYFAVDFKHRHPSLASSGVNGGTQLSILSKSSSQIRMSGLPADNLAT


Assays:
human CGRP receptor = human CGRP receptor (human, UniProt Q16602 23-461; O60894 27-148); assay: cell-based or functional assay
Sequence of human CGRP receptor (Q16602 23-461 limits assumed, chain 1 of 2): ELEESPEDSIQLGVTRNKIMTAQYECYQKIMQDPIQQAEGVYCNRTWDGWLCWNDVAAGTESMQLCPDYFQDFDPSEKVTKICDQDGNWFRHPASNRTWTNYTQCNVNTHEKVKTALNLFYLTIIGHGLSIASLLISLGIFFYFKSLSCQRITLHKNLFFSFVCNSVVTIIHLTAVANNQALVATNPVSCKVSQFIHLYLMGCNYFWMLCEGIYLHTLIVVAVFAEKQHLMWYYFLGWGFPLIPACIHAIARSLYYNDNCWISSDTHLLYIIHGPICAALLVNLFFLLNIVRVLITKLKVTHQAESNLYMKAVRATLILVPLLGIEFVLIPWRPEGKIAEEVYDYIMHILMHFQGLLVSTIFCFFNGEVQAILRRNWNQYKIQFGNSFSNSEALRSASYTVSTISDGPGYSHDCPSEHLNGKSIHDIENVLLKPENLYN
Sequence of human CGRP receptor (O60894 27-148 limits assumed, chain 2 of 2): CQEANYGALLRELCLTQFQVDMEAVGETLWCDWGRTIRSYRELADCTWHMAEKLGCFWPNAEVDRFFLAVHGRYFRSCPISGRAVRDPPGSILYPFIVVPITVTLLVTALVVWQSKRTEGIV

human PAC1 receptor = target: T1, human PAC1 receptor; assay: cell-based or functional assay

Binder | % inhibition of human CGRPR (human CGRP receptor) | % inhibition of human PAC1 (human PAC1 receptor)
iPS:328035 (bispecific antibody, human IgG1, kappa, N297G) light 1: DIQMTQSPSSLSASVGDRITITCRASQSISRYLNWYQQKPGKAPKLLIYAASSLQSGIPSRFSGSGSGTDFTLTINSLQPEDFATYFCQQSYSPPFTFGQGTKVDIKRTVAAPSVFIFPPSDEQLKSGTASVVCLLNNFYPREAKVQWKVDNALQSGNSQESVTEQDSKDSTYSLESTLTLSKADYEKHKVYACEVTHQGLSSPVTKSFNRGEC heavy 1: not shown light 2: EIVLTQSPGTLSLSPGERATLSCRASQSVSSGYLTWYQQKPGQAPRLLIYGASSRATGIPDRFSGSGSGTDFTLTISRLEPEDFAVYYCQQYGNSLSRFGQGTKLEIKRTVAAPSVFIFPPSDEQLKSGTASVVCLLNNFYPREAKVQWKVDNALQSGNSQESVTEQDSKDSTYSLKSTLTLSKADYEKHKVYACEVTHQGLSSPVTKSFNRGEC heavy 2: not shown | 73% | 10%
iPS:328037 (bispecific antibody, human IgG1, kappa, lambda, N297G) light 1: DIQMTQSPSSLSASVGDRITITCRASQSISRYLNWYQQKPGKAPKLLIYAASSLQSGIPSRFSGSGSGTDFTLTINSLQPEDFATYFCQQSYSPPFTFGQGTKVDIKRTVAAPSVFIFPPSDEQLKSGTASVVCLLNNFYPREAKVQWKVDNALQSGNSQESVTEQDSKDSTYSLESTLTLSKADYEKHKVYACEVTHQGLSSPVTKSFNRGEC heavy 1: not shown light 2: not shown heavy 2: not shown | 71% | 25%
iPS:328042 (bispecific antibody, human IgG1, kappa, lambda, N297G) light 1: DIQMTQSPSSLSASVGDRITITCRASQSISRYLNWYQQKPGKAPKLLIYAASSLQSGIPSRFSGSGSGTDFTLTINSLQPEDFATYFCQQSYSPPFTFGQGTKVDIKRTVAAPSVFIFPPSDEQLKSGTASVVCLLNNFYPREAKVQWKVDNALQSGNSQESVTEQDSKDSTYSLESTLTLSKADYEKHKVYACEVTHQGLSSPVTKSFNRGEC heavy 1: not shown light 2: not shown heavy 2: not shown | 85% | 20%
iPS:328040 (bispecific antibody, human IgG1, kappa, lambda, N297G) light 1: DIQMTQSPSSLSASVGDRITITCRASQSISRYLNWYQQKPGKAPKLLIYAASSLQSGIPSRFSGSGSGTDFTLTINSLQPEDFATYFCQQSYSPPFTFGQGTKVDIKRTVAAPSVFIFPPSDEQLKSGTASVVCLLNNFYPREAKVQWKVDNALQSGNSQESVTEQDSKDSTYSLESTLTLSKADYEKHKVYACEVTHQGLSSPVTKSFNRGEC heavy 1: not shown light 2: not shown heavy 2: not shown | 74% | 70%
iPS:326669 (bispecific antibody, human IgG2, kappa) light 1: EIVLTQSPATLSLSPGERATLSCRASQSVGRSLHWYQQKPGQAPRLLIKYASQSLSGIPARFSGSGSGTDFTLTISSLEPEDFAVYYCHQSSRLPFTFGPGTKVDIKRTVAAPSVFIFPPSDEQLKSGTASVVCLLNNFYPREAKVQWKVDNALQSGNSQESVTEQDSKDSTYSLESTLTLSKADYEKHKVYACEVTHQGLSSPVTKSFNRGEC heavy 1: QVQLVESGGGVVQPGRSLRLSCAASGFTFSRFAMHWVRQAPGKGLEWVAVISYDGGNKYYAESVKGRFTISRDNSKNTLYLQMNSLRAEDTALFYCARGYDVLTGYPDYWGQGTLVTVSSASTKGPSVFPLAPCSRSTSESTAALGCLVKDYFPEPVTVSWNSGALTSGVHTFPAVLQSSGLYSLKSVVTVPSSNFGTQTYTCNVDHKPSNTKVDKTVERKCCVECPPCPAPPVAGPSVFLFPPKPKDTLMISRTPEVTCVVVDVSHEDPEVQFNWYVDGVEVHNAKTKPREEQFNSTFRVVSVLTVVHQDWLNGKEYKCKVSNKGLPAPIEKTISKTKGQPREPQVYTLPPSREEMTKNQVSLTCLVDGFYPSDIAVEWESNGQPENNYDTTPPMLDSDGSFFLYSDLTVDKSRWQQGNVFSCSVMHEALHNHYTQKSLSLSPGK light 2: EIVLTQSPGTLSLSPGERATLSCRASQSVSSGYLTWYQQKPGQAPRLLIYGASSRATGIPDRFSGSGSGTDFTLTISRLEPEDFAVYYCQQYGNSLSRFGQGTKLEIKRTVAAPSVFIFPPSDEQLKSGTASVVCLLNNFYPREAKVQWKVDNALQSGNSQESVTEQDSKDSTYSLKSTLTLSKADYEKHKVYACEVTHQGLSSPVTKSFNRGEC heavy 2: QVQLVESGGGVVQPGRSLRLSCAASGFTFSSYGMHWVRQAPGKGLEWVAVIWYDGSNKYYADSVKGRFIISRDKSKNTLYLQMNSLRAEDTAVYYCARAGGIAAAGLYYYYGMDVWGQGTTVTVSSASTKGPSVFPLAPCSRSTSESTAALGCLVKDYFPEPVTVSWNSGALTSGVHTFPAVLQSSGLYSLESVVTVPSSNFGTQTYTCNVDHKPSNTKVDKTVERKCCVECPPCPAPPVAGPSVFLFPPKPKDTLMISRTPEVTCVVVDVSHEDPEVQFNWYVDGVEVHNAKTKPREEQFNSTFRVVSVLTVVHQDWLNGKEYKCKVSNKGLPAPIEKTISKTKGQPREPQVYTLPPSRKKMTKNQVSLTCLVKGFYPSDIAVEWESNGQPENNYKTTPPMLKSDGSFFLYSKLTVDKSRWQQGNVFSCSVMHEALHNHYTQKSLSLSPGK | 74% | 85%
iPS:328036 (bispecific antibody, human IgG1, kappa, N297G) light 1: not shown heavy 1: not shown light 2: EIVLTQSPGTLSLSPGERATLSCRASQSVSSGYLTWYQQKPGQAPRLLIYGASSRATGIPDRFSGSGSGTDFTLTISRLEPEDFAVYYCQQYGNSLSRFGQGTKLEIKRTVAAPSVFIFPPSDEQLKSGTASVVCLLNNFYPREAKVQWKVDNALQSGNSQESVTEQDSKDSTYSLKSTLTLSKADYEKHKVYACEVTHQGLSSPVTKSFNRGEC heavy 2: not shown | 79% | 21%
iPS:328039 (bispecific antibody, human IgG1, kappa, lambda, N297G) light 1: not shown heavy 1: not shown light 2: not shown heavy 2: EVQLVESGGGLVKPGGSLRLSCAASGFTFGNAWMSWVRQAPGKELEWVGRIKSKTDGGTTDYAAPVKGRFTISRDDSKNTLYLQMNSLKTEDTAVYFCTTDRTGYSISWSSYYYYYGMDVWGQGTTVTVSSASTKGPSVFPLAPSSKSTSGGTAALGCLVKDYFPEPVTVSWNSGALTSGVHTFPAVLQSSGLYSLESVVTVPSSSLGTQTYICNVNHKPSNTKVDKKVEPKSCDKTHTCPPCPAPELLGGPSVFLFPPKPKDTLMISRTPEVTCVVVDVSHEDPEVKFNWYVDGVEVHNAKTKPCEEQYGSTYRCVSVLTVLHQDWLNGKEYKCKVSNKALPAPIEKTISKAKGQPREPQVYTLPPSRKEMTKNQVSLTCLVKGFYPSDIAVEWESNGQPENNYKTTPPVLKSDGSFFLYSKLTVDKSRWQQGNVFSCSVMHEALHNHYTQKSLSLSPGK | 74% | 9%

Other lines, results leading:

% inhibition of human CGRPR (human CGRP receptor) | % inhibition of human PAC1 (human PAC1 receptor) | Binder
67% | 29% | iPS:328045 (bispecific antibody, human IgG1, kappa, lambda, N297G) light 1: DIQMTQSPSSLSASVGDRITITCRASQSISRYLNWYQQKPGKAPKLLIYAASSLQSGIPSRFSGSGSGTDFTLTINSLQPEDFATYFCQQSYSPPFTFGQGTKVDIKRTVAAPSVFIFPPSDEQLKSGTASVVCLLNNFYPREAKVQWKVDNALQSGNSQESVTEQDSKDSTYSLESTLTLSKADYEKHKVYACEVTHQGLSSPVTKSFNRGEC heavy 1: not shown light 2: not shown heavy 2: not shown
78% | 33% | iPS:328047 (bispecific antibody, human IgG1, kappa, lambda, N297G) light 1: DIQMTQSPSSLSASVGDRITITCRASQSISRYLNWYQQKPGKAPKLLIYAASSLQSGIPSRFSGSGSGTDFTLTINSLQPEDFATYFCQQSYSPPFTFGQGTKVDIKRTVAAPSVFIFPPSDEQLKSGTASVVCLLNNFYPREAKVQWKVDNALQSGNSQESVTEQDSKDSTYSLESTLTLSKADYEKHKVYACEVTHQGLSSPVTKSFNRGEC heavy 1: not shown light 2: QSVLTQPPSVSAAPGQKVTISCSGSSSNIGNNYVSWYQQLPGTAPKLLIYDNNKRPSGIPDRFSGSKSGTSTTLGITGLQTGDEADYYCGTWDSRLSAVVFGGGTKLTVLGQPKANPTVTLFPPSSEELQANKATLVCLISDFYPGAVTVAWKADGSPVKAGVETTKPSKQSNNKYAAKSYLSLTPEQWKSHRSYSCQVTHEGSTVEKTVAPTECS heavy 2: QVQLVESGGGVVQPGRSLRLSCAASGFTFSSFGMHWVRQAPGKGLEWVAVISFDGSIKYSVDSVKGRFTISRDNSKNTLFLQMNSLRAEDTAVYYCARDRLNYYDSSGYYHYKYYGMAVWGQGTTVTVSSASTKGPSVFPLAPSSKSTSGGTAALGCLVKDYFPEPVTVSWNSGALTSGVHTFPAVLQSSGLYSLESVVTVPSSSLGTQTYICNVNHKPSNTKVDKKVEPKSCDKTHTCPPCPAPELLGGPSVFLFPPKPKDTLMISRTPEVTCVVVDVSHEDPEVKFNWYVDGVEVHNAKTKPCEEQYGSTYRCVSVLTVLHQDWLNGKEYKCKVSNKALPAPIEKTISKAKGQPREPQVYTLPPSRKEMTKNQVSLTCLVKGFYPSDIAVEWESNGQPENNYKTTPPVLKSDGSFFLYSKLTVDKSRWQQGNVFSCSVMHEALHNHYTQKSLSLSPGK
77% | 5% | iPS:328044 (bispecific antibody, human IgG1, kappa, lambda, N297G) light 1: not shown heavy 1: not shown light 2: not shown heavy 2: EVQLVESGGGLVKPGGSLRLSCAASGFTFSNAWMSWVRQAPGKELEWVGRIKSKTDGGTTDYTAPVKGRFTISRDDSKNTLYLQMNSLKAEDTAVYYCTTDRTGYSISWSSYYYYYGMDVWGQGTTVTVSSASTKGPSVFPLAPSSKSTSGGTAALGCLVKDYFPEPVTVSWNSGALTSGVHTFPAVLQSSGLYSLESVVTVPSSSLGTQTYICNVNHKPSNTKVDKKVEPKSCDKTHTCPPCPAPELLGGPSVFLFPPKPKDTLMISRTPEVTCVVVDVSHEDPEVKFNWYVDGVEVHNAKTKPCEEQYGSTYRCVSVLTVLHQDWLNGKEYKCKVSNKALPAPIEKTISKAKGQPREPQVYTLPPSRKEMTKNQVSLTCLVKGFYPSDIAVEWESNGQPENNYKTTPPVLKSDGSFFLYSKLTVDKSRWQQGNVFSCSVMHEALHNHYTQKSLSLSPGK

From US20170306033A1 (Amgen, published 2017)
